System: O=C(O)C(CO)OP(=O)(O)O
Assay: Enolase single enzyme assay: conversion of 2-phosphoglycerate to phosphoenolpyruvate, absorbance at 240 nm
Type: biochemical
Details: 7.7 mM KCl
Source text: FIG. 7: Michaelis-Menten plot depicting the change in absorbance at 240 nm/minute as a function of the concentration of 2-phosphoglycerate (mM) as catalyzed by the plasmin binding protein. The change in absorbance is due to the conversion of 2-phosphoglycerate to phosphoenolpyruvate. Conditions as described in Example 1.
FIG. 8: Double-reciprocal plot depicting the change in the reciprocal of the absorbance at 240 nm/minute as a function of the reciprocal of the concentration of 2-phosphoglycerate (mM) as catalyzed by the plasmin binding protein. The change in absorbance is due to the conversion of 2-phosphoglycerate to phosphoenolpyruvate. Conditions as described in Example 1.
The molecular weight of the plasmin binding protein for one particular embodiment of the present invention has been determined to be approximately 45 kDa by SDS-PAGE.
(b) For the kinetic studies, the single enzyme assay was used, involving only the conversion of 2-phosphoglycerate to phosphoenolpyruvate by enolase. This simpler reaction avoids possible interactions of the effectors with the other enzymes. The reaction was performed at 30° C. in 100 mM HEPES buffer, pH 7.0, containing 10 mM MgSO4, 3.2 mM EDTA and 7.7 mM KCl and varying concentrations of 2-phosphoglycerate (0.19-7.5 mM). The change in absorbance/min was monitored at 240 nm. […] Michaelis-Menten and Lineweaver-Burke plots were drawn from the data obtained using 5 μg of SEN and varying concentrations of 2-phosphoglycerate (FIGS. 7 and 8). […] A concentration-dependent increase in the enolase activity was also found for the intact, washed streptococci (FIG. 5).

[1] = other: 0.1 M Hepes pH 7.0, 10 mM MgSO4, 3.2 mM EDTA, 30° C.
[2] = other: 30° C., 100 mM HEPES pH 7.0, 10 mM MgSO4, 3.2 mM EDTA, 5 μg SEN, 2-phosphoglycerate 0.19-7.5 mM, Michaelis-Menten and Lineweaver-Burke plots

For “streptococcal surface enolase (SEN), 45 kDa plasmin binding protein purified from group A streptococci type M6 strain D471, N-terminal sequence SEQ ID NO: 1 (Streptococcus pyogenes MGAS10394)”, which Km [1] is on record?
The Km was 1.5 mM.

What about the Vmax [1] of the same substance?
The Vmax was 270 μmol per minute-mg protein.

What about the Km [2] of the same substance?
The Km was 1.5 mM.

And the Vmax [2]?
Its Vmax is 270 μmol per minute-mg protein.

Source: patent US6190659A, “Bacterial plasmin binding protein and methods of use thereof” (priority 1996, dated 2001)
